Experimental data published in US20210137911A1, “NOVEL CHRONOTHERAPY BASED ON CIRCADIAN RHYTHMS” (THE TRUSTEES OF THE UNIVERSITY OF PENNSYLVANIA, priority 2014, published 2021).

Assay: not given
Settings: cited from earlier work
In the case of `CCCCC(=O)N(Cc1ccc(-c2ccccc2-c2nnn[nH]2)cc1)[C@H](C(=O)O)C(C)C` [Valsartan], the “time at which concentration in plasma reaches the maximum after administration” value is listed as 2 to 4 h.

Assay: not given
Settings: half-life of therapeutic compound as listed in Table 1; cited from earlier work
For `O=C(O)c1cccnc1` [niacin, reference compound], the “½ Life” value is given as 0.33 h. In the case of OspA lipoprotein, the “½ Life” value is given as 1.2 h.

Same assay, conditions: half-life of top selling therapeutic compounds (Table 1); cited from earlier work
In the case of Bleomycin, the “½ Life” value is listed as 1.916 h. In the case of “Corticotropin (SYSMEHFRWGKPVGKKRRPVKVYPNGAEDESAEAFPLEF; Corticotropin; UniProt P01189 138-176, looked up)”, the “½ Life” value is listed as 0.25 h. For Denileukin diftitox, the “½ Life” value is listed as 1.166 h.

Same assay, conditions: in vivo; cited from earlier work
In the case of Aldesleukin, the “½ Life” value is listed as 0.216 h. For Alglucosidase alfa, the “½ Life” value is listed as 2.3 h. For Anakinra, the “½ Life” value is listed as 4 h. For Defibrotide, the “½ Life” value is given as 1 h. In the case of Drotrecogin alfa, the “½ Life” value is listed as 5.5 h. In the case of Enoxaparin, the “½ Life” value is listed as 4.5 h. In the case of Galsulfase, the “½ Life” value is given as 0.15 h. For Heparin, the “½ Life” value is given as 1.5 h. For Insulin Detemir, the “½ Life” value is given as 5 h. In the case of Insulin Glulisine, the “½ Life” value is given as 0.7 h. For Insulin Lispro, the “½ Life” value is given as 1 h. For Interferon Alfa-2a, Recombinant, the “½ Life” value is listed as 2 h. In the case of Interferon alfacon-1, the “½ Life” value is given as 1.3 h. For Leptin, the “½ Life” value is given as 0.415 h. For Mecasermin, the “½ Life” value is given as 2 h. For Muromonab, the “½ Life” value is given as 0.8 h. In the case of Nesiritide, the “½ Life” value is listed as 0.3 h. For Nitroprusside, the “½ Life” value is listed as 0.033 h. For Pegaptanib, the “½ Life” value is given as 3 h. In the case of Pentosan Polysulfate, the “½ Life” value is given as 4.8 h. In the case of Rituximab, the “½ Life” value is listed as 0.8 h. In the case of Tinzaparin, the “½ Life” value is given as 1.366 h. For Tositumomab, the “½ Life” value is listed as 0.8 h. For Urokinase, the “½ Life” value is given as 0.2 h. In the case of Vitamin A, the “½ Life” value is listed as 1.9 h.

Same assay, conditions: see Table 1; cited from earlier work
In the case of `O=C(O)c1cccnc1` [niacin, reference compound], the half-life is given as 19.8 min.

Assay: Trial of bedtime versus awakening administered Valsartan, blood pressure
Type: in vivo
Settings: bedtime minus awakening
From the text: Taking an angiotensin receptor blocker (ARB) or an […] (ACE) inhibitor before bedtime is known to cause a drop in blood pressure. […] Thus, current treatment methods are insufficient to induce a dip in non-dippers.
In the case of `CCCCC(=O)N(Cc1ccc(-c2ccccc2-c2nnn[nH]2)cc1)[C@H](C(=O)O)C(C)C` [Valsartan], the “net blood pressure difference bedtime vs awakening, first value of printed pair” value is reported as 8 mmHg and the “net blood pressure difference bedtime vs awakening, second value of printed pair” value is reported as 6 mmHg.

Same assay, conditions: bedtime vs awakening group
In the case of `CCCCC(=O)N(Cc1ccc(-c2ccccc2-c2nnn[nH]2)cc1)[C@H](C(=O)O)C(C)C` [Valsartan], the “better result of bedtime group than the awakening group” value is reported as 10 mmHg.
